In article PMC7644641 (Nature structural & molecular biology, 2020):

Biological target: RagA:RagC^D181N GTPase heterodimer (UniProt Q7L523 1-313; Q9HB90 1-399, D181N)
Assay: SEC

Chain of RagA:RagC^D181N GTPase heterodimer (Q7L523 whole entry, chain 1 of 2): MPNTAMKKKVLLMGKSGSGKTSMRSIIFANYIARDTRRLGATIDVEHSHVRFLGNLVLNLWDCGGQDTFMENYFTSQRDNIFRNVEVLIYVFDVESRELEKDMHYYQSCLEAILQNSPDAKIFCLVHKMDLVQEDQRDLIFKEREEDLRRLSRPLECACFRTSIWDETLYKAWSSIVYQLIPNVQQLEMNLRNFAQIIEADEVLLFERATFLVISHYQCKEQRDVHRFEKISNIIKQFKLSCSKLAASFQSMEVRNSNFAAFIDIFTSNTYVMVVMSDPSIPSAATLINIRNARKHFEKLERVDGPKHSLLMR
Chain of RagA:RagC^D181N GTPase heterodimer (Q9HB90 whole entry D181N, chain 2 of 2): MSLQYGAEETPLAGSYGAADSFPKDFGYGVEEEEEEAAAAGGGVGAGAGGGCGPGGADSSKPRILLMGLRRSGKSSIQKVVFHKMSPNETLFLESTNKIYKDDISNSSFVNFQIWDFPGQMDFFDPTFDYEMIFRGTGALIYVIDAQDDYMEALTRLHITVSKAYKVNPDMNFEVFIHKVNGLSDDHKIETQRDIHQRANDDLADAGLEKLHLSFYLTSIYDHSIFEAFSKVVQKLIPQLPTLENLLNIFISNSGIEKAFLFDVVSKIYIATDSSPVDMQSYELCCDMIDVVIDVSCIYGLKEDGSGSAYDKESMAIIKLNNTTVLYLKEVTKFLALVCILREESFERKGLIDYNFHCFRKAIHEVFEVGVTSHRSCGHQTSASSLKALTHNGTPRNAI

- binding result: binds
B1: SLC38A9 N-terminal cytoplasmic tail (residues 1–119) (domain or fragment, human, UniProt Q8NBW4 1-119, looked up)
chain: MANMNSDSRHLGTSEVDHERDPGPMNIQFEPSDLRSKRPFCIEPTNIVNVNHVIQRVSDHASAMNKRIHYYSRLTTPADKALIAPDHVVPAPEECYVYSPLGSAYKLQSYTEGYGKNTS
